Here are results for seven substances from US5576294A, “Human Kunitz-type protease inhibitor variant” (Novo Nordisk A/S, priority 1992, dated 1996).

In one test the target is T1, granulocyte elastase (Homo sapiens, UniProt P08246).
T1 sequence (P08246 30-267): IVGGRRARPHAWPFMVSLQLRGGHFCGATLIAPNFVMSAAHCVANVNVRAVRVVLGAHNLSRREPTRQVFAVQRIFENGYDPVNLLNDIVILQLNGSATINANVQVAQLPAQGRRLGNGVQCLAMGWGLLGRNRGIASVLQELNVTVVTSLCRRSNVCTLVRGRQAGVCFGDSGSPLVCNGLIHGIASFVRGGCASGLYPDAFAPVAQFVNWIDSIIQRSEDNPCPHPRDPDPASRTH
Conditions: Wenzel and Tschesche 1981; cited from earlier work.

The test system of the next test is collagenase. Conditions: Wenzel and Tschesche 1981; cited from earlier work.
The conditions of test [1]: high doses; cardiac surgery including cardiopulmonary bypass operations; cited from earlier work.
Test [2] has as its target T2, plasma kallikrein (Homo sapiens, UniProt P03952). Conditions: cf. WO 89/10374; cited from earlier work.
Target sequence in this assay (P03952 20-638, species assumed): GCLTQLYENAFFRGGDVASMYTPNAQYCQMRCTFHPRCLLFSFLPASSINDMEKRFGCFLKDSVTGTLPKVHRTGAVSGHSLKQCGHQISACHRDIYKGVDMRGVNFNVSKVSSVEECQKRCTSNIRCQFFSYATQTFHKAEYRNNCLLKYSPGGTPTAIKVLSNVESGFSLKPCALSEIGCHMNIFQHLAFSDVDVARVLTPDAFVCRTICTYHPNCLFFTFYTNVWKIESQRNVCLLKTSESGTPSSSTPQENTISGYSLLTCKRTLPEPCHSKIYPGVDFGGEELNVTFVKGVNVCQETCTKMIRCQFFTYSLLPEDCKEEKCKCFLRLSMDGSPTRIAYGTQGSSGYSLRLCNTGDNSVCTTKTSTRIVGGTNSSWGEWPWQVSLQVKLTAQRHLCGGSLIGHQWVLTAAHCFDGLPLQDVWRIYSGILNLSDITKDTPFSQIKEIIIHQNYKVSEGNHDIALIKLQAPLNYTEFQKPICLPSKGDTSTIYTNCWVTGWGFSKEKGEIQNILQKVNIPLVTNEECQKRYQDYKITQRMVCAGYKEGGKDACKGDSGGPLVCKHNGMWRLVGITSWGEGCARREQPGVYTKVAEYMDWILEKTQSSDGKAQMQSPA
Test [3] deals with Porcine trypsin (porcine) (UniProt P00761).
Test [4] has as its target Factor Xa (as used in Example 3) (Homo sapiens (Human)) (UniProt P00742). Description: proteinase inhibition: enzyme incubated 30 min with KFN 1593, residual activity on peptidyl nitroanilide substrate at 405 nm.
Test [5] deals with Porcine trypsin (porcine) (UniProt P00761). The description is as above.
Test [6] deals with T3, glandular kallikrein (porcine pancreatic kallikrein) (Sus scrofa, UniProt P00752).
T3 construct: purchased Sigma Chemical Co (St. Louis, Mo., U.S.A.)
As to the kind of experiment: Inhibition of serine proteinases: glandular kallikrein. Format: biochemical. The settings on record: Example 3; 30 min incubation, FIG. 3. The protocol:
(§1) KFN 1593 was purified from yeast culture medium as described in example 1. The concentration of KFN 1593 was determined using 1% E280 nm =8.3 and Mw =6500. Porcine trypsin was from Novo Nordisk (Bagsv.ae butted.rd, Denmark), bovine chymotrypsin (TLCK treated) and porcine pancreatic kallikrein was from Sigma Chemical Co (St. Louis, Mo., U.S.A.), human plasmin and human plasma kallikrein was from Kabi (Stockholm, Sweden).
(§2) Human neutrophil elastase and cathepsin G was purified from extracts of PMNs according to the method described by Baugh and Travis (Biochemistry 15 (1976) 836-843). Peptidyl nitroanilide substrates, S2251, S2586, S2266, S2302 were from Kabi (Stockholm, Sweden). M4765 and S7388 was from Sigma Chemical Co (St. Louis, Mo., U.S.A.) and FXa-1 was from NycoMed (Oslo, Norway).
(§3) Serine proteinases were incubated with various concentrations of KFN 1593 for 30 min. Substrate was then added and residual proteinase activity was measured at 405 nm.
(§4) The three TFPI (domain II) variants were purified from yeast culture medium. Their concentrations were determined from the absorbance at 214 nm using BPTI as a standard. The final concentration was determined by titration with trypsin. Porcine trypsin and human recombinant proteins, factor VIIa, activated protein C (ACP), and tPA were obtained from Novo Nordisk A/S (Bagsvaerd, Denmark), so was human thrombin. Bovine chymotrypsin and glandular kallikrein were obtained from Sigma Chemical Co. (St. Louis, Mo., U.S.A.). Truncated human recombinant tissue factor was obtained from Corvas (San Diego, Calif., U.S.A.). Human neutrophil cathepsin G was purified from extracts of PMNs according to the method described by Baugh and Travis (Biochemistry 15 (1976) 836-843). Human plasmin was from Kabi (Stockholm, Sweden), uPA was from Serono (Milan, Italy), human factor Xa was a gift from Dr. W. Kisiel (Albuquerque, N.M., U.S.A.), and human plasma kallikrein was a gift from Dr. I Schousboe (Copenhagen, Denmark).
(§5) Peptidyl nitroanilide substrates, S2251, S2302, S2266, S2586, S2288, S2444, S2366, and S2238 were from Kabi (Stockholm, Sweden). S7388 and M4765 were from Sigma Chemical Co. (St. Louis, Mo., U.S.A.) and FXa-1 was from Nycomed (Oslo, Norway).
(§6) Serine proteinases were incubated with various concentrations of Kunitz Domain variant for 30 min. Substrate (0.6 mM) was then added and residual proteinase activity was measured at 405 nm.

For another test, the target named is Human plasmin (Homo sapiens, UniProt P00747). As to the kind of experiment: Inhibition of serine proteinases: plasmin. Format: biochemical. Further details: human plasmin and human plasma kallikrein was from Kabi (Stockholm, Sweden); purchased Kabi (Stockholm, Sweden). Conditions: Example 3; 30 min incubation, FIG. 2. How it is done:
as §1, §2, §3, §4, §5, §6
(§7) The four variants were purified from yeast culture medium. Their concentrations were determined from the absorbance at 214 nm using BTPI as a standard. Porcine trypsin was obtained from Novo Nordisk A/S (Bagsvaerd, Denmark, bovine chymotrypsin (TLCK treated) was obtained from Sigma Chemical Co. (St. Louis, Mo., U.S.A.). Truncated human recombinant tissue factor was obtained from Corvas (San Diego, Calif., U.S.A.). Human plasmin was from Kabi (Stockholm, Sweden). Human neutrophil cathepsin G and elastase were purified from extracts of PMNs according to the method described by Baugh and Travis (Biochemistry 15 (1976) 836-843).
(§8) Peptidyl nitroanilide substrates, S2251, S2586 were from Kabi (Stockholm, Sweden). S7388 and M4765 were from Sigma Chemical Co. (St. Louis, Mo., U.S.A.).
(§9) Serine proteinases were incubated with various concentrations of the variants for 30 min. Substrate ([…]) was then added and residual proteinase activity was measured at 405 nm.

The target of the next test is T4, human factor Xa (Homo sapiens, UniProt P00742).
T4 construct: human factor Xa was a gift from Dr. W. Kisiel; gift from Dr. W. Kisiel (Albuquerque, N.M., U.S.A.)
Description: Inhibition of serine proteinases: Factor Xa. Format: biochemical. Conditions: Example 3; 30 min incubation; read-out: Ki, factor X. How it is done: as §1, §2, §3
The three TFPI (domain II) variants were purified from yeast culture medium. Their concentrations were determined from the absorbance at 214 nm using BPTI as a standard. The final concentration was determined by titration with trypsin. […]
as §6

Test [7] deals with T5, Human neutrophil elastase (Homo sapiens, UniProt P08246).
T5 construct: Human neutrophil elastase and cathepsin G was purified from extracts of PMNs; from tissue; host or cells: extracts of human polymorphonuclear leukocytes (PMNs), method of Baugh and Travis
T5 sequence (P08246 30-267): T1 sequence (P08246 30-267)
Description: Inhibition of serine proteinases: neutrophil elastase. Format: biochemical. The settings on record: Example 3; 30 min incubation, FIG. 3. The protocol: as §1, §2
Serine proteinases were incubated with various concentrations of KFN 1593 for 30 min. Substrate was then added and residual proteinase activity was measured at 405 nm. […]
as §7, §8, §9

The target of test [8] is T2, plasma kallikrein. As to the kind of experiment: Inhibition of serine proteinases: plasma kallikrein. Format: biochemical. The settings on record: Example 3; 30 min incubation, FIG. 3. How it is done:
as §1, §2, §3, §4, §5, §6
Target sequence in this assay (P03952 391-638 limits assumed): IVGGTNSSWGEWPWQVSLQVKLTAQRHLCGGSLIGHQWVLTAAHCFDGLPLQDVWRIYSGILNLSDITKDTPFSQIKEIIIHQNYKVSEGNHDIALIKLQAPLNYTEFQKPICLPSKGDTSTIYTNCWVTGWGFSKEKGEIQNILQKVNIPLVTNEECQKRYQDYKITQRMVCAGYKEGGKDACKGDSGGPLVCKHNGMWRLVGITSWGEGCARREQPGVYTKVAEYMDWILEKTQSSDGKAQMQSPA
Target sequence in this assay (P03952 20-390 limits assumed): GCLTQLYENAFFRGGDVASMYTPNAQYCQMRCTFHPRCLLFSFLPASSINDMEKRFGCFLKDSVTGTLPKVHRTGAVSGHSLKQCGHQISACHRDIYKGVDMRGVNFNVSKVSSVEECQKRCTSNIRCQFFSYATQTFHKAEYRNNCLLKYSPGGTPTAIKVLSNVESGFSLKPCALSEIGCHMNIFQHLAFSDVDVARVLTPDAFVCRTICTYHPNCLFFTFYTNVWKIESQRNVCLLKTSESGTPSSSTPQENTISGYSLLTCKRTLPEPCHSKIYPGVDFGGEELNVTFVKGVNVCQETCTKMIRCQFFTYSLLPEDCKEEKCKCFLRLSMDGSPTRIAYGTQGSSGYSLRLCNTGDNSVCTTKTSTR

The target of test [9] is T6, Human neutrophil cathepsin G (Homo sapiens, UniProt P08311).
T6 construct: Human neutrophil cathepsin G was purified from extracts of PMNs; from tissue; host or cells: extracts of human polymorphonuclear leukocytes (PMNs), method of Baugh and Travis
T6 sequence (P08311 21-255): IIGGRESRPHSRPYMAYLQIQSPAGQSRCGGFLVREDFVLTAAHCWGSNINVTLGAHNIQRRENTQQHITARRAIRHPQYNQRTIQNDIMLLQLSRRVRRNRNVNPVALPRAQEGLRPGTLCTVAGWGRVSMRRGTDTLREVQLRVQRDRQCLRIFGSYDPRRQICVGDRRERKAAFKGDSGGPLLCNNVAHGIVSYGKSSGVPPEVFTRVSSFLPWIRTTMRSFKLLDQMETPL
Description: Inhibition of serine proteinases: neutrophil cathepsin G. Format: biochemical. The settings on record: Example 3; 30 min incubation, FIG. 3. How it is done:
as §1, §2, §3, §4, §5, §6, §7, §8, §9

Test [10] concerns the target Human neutrophil elastase (human) (UniProt P08246). Description: apparent Ki; 4 nM neutrophil elastase, substrate M4765, 30 min preincubation, residual activity at 405 nm.
The target is the same in test [11].
Test [12] has as its target bovine chymotrypsin (TLCK treated) (bovine) (UniProt P00766).
Test [13] has the same target. Description: apparent Ki; 2.5 nM chymotrypsin, substrate S2586, 30 min preincubation, residual activity at 405 nm.

Human plasmin, sequence (P00747 581-810 limits assumed): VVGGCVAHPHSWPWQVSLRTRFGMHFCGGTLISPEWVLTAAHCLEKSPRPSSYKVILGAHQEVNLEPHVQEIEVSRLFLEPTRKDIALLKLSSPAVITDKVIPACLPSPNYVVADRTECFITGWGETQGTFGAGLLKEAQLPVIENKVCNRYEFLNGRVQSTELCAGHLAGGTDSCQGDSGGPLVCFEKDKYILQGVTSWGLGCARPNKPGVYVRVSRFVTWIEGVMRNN
Human plasmin, sequence (P00747 97-580 limits assumed): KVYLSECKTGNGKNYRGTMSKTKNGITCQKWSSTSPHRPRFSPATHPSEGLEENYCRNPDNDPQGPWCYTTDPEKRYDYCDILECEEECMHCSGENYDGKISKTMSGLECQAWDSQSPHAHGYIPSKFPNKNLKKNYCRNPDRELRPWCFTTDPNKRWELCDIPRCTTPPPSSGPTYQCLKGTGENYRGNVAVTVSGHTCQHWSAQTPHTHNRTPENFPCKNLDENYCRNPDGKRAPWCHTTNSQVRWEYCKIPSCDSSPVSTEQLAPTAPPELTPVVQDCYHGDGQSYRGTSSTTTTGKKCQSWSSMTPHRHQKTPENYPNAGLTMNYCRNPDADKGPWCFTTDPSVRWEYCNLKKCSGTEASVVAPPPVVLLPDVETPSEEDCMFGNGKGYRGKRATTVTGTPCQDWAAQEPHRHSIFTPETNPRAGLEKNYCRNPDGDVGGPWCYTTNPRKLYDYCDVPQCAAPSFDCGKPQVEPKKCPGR
T4 sequence (P00742 235-488 limits assumed): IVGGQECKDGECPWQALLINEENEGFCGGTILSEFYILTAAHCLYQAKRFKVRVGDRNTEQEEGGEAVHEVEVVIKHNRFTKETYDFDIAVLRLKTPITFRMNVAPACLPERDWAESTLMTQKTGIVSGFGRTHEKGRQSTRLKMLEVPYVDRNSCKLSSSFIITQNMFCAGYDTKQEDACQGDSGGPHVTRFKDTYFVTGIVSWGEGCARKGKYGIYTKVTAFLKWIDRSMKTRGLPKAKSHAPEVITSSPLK
T4 sequence (P00742 41-179 limits assumed): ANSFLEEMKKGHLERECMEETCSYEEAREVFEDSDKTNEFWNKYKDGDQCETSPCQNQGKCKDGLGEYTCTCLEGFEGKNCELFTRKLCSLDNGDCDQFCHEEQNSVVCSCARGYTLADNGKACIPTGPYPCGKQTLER
T3 sequence (P00752 8-246): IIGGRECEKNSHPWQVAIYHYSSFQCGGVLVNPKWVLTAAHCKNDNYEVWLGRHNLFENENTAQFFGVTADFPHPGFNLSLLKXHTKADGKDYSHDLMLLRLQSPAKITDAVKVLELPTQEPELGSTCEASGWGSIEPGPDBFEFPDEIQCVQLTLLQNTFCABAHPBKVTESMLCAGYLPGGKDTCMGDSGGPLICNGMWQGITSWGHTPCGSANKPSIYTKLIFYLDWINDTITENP

As for aprotinin (1-58, Ala15), the “effect on granulocyte elastase (in words)” value at granulocyte elastase is recorded as “weak effect”.
Take aprotinin(1-58, Val15): the “effect on collagenase (in words)” value with collagenase is on record as “inhibitory effect”. In addition, the “effect on granulocyte elastase (in words)” value on granulocyte elastase was “relatively high selectivity”.
With aprotinin, the “blood loss in connection with cardiac surgery” value in test [1] is “significantly reduces blood loss”.
aprotinin (3-58, Arg15, Ala17, Ser42): the “plasma kallikrein inhibitory effect (in words)” value on plasma kallikrein [2] is given as “excellent plasma kallikrein inhibitory effect”.
With “TFPI-2, the second Kunitz domain of tissue factor pathway inhibitor, from yeast strain KFN-1593 (from UniProt P10646)”, in test [3], the residual proteinase activity at 405 nm stood at 5 nM. In addition, the Ki in test [4] was 150 nM; in test [5], 5 nM.
Regarding “KFN 1593: Unmodified TFPI Kunitz domain II (second Kunitz domain of tissue factor pathway inhibitor), produced from yeast strain KFN-1593 (RFESLEECKKMCTRDNANRIIKTTLQQEKPDFCFLEEDPGICRGYITRYFYNNQTKQC)”, in [6], the “inhibition of kallikreins (in words): glandular kallikrein” value is reported as “essentially absent”. For the same substance, the “inhibition of plasmin (in words)” value with Human plasmin is on record as “moderate inhibition”. Moreover, the Ki with human factor Xa came to 150 nM. For the same substance, the “inhibition of neutrophil elastase (in words)” value in [7] is reported as “moderate inhibition”. Besides, in the test with plasma kallikrein [8], the “inhibition of kallikreins (in words): plasma kallikrein” value was “essentially absent”. Further, in test [9], the “inhibition of Cathepsin G (in words)” value is given as “essentially absent”.
With “[R15L, G16A]-TFPI-2 from yeast strain KFN-1893 (from UniProt P10646)”, the values for the Ki in [10] and in test [13] were 0.23 nM and less than 5 nM, respectively. For the same substance, the apparent Ki in [11] is 0.23 nM; in test [12], less than 5 nM.
